Consider five molecules from publication PMC12513996 (Nature Communications, 2025).

B2: FIP200(1490–1594) (domain or fragment)
chain: SRHSEKIAIRDFQVGDLVLIILDERHDNYVLFTVSPTLYFLHSESLPALDLKPGEGASGASRRPWVLGKVMEKEYCQAKKAQNRFKVPLGTKFYRVKAVSWNKKV
B3: FIP200(1490–1594) of the crystallised FIP200 Claw/ATG16L1 FIR complex (domain or fragment)
chain: SRHSEKIAIRDFQVGDLVLIILDERHDNYVLFTVSPTLYFLHSESLPALDLKPGEGASGASRRPWVLGKVMEKEYCQAKKAQNRFKVPLGTKFYRVKAVSWNKKV

One data set concerns the target GST-[…]1 (human, UniProt Q9H0R8 1-117). Description: SEC.
The next data set addresses ATG16L1(78–247) (human, UniProt Q676U5 78-247). Description: SEC-MALS.
The data set “crystal structure” concerns the molecule itself. The data set is described as follows: crystal structure.
The target of the data set “FIP200(1490–1594)” is B2. Description: SEC. On the technique in general: In gel filtration, larger molecules generally elute earlier.
Data set [1] concerns the target B3. The data set is described as follows: crystal structure.

Sequence of GST-[…]1 (Q9H0R8 whole entry): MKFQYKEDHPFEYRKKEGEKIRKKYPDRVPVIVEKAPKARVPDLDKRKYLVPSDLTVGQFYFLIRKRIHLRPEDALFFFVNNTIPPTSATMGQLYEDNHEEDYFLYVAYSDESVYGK

B1: Trx-tagged ATG16L1(78–247) (domain or fragment)
chain: NDNQLQEMAQLRIKHQEELTELHKKRGELAQLVIDLNNQMQRKDREMQMNEAKIAECLQTISDLETECLDLRTKLCDLERANQTLKDEYDALQITFTALEGKLRKTTEENQELVTRWMAEKAQEANRLNAENEKDSRRRQARLQKELAEAAKEPLPVEQDDDIEVIVDET
For B1, in the data set with GST-[…]1, the binding result was “binds”. The term stoichiometry N denotes a count of units in the complex or per binding partner. As to B2, the “stoichiometry N” value with ATG16L1(78–247) came to 1.

For B3, in “crystal structure”, the “stoichiometry N” value turned out to be 2.

B4: Trx-tagged ATG16L1 FIR (domain or fragment)
chain: EQDDDIEVIVDET
In the case of B4, in the data set with FIP200(1490–1594), the binding result is given as “binds”.

B5: ATG16L1(235–247) of the crystallised FIP200 Claw/ATG16L1 FIR complex (peptide)
chain: EQDDDIEVIVDET
For the molecule B5, the binding result in data set [1] is “binds”.
